We go through 1 molecule from patent US20180319875A1 (ANN AND ROBERT H LURIE CHILDREN S HOSPITAL OF CHICAGO, published 2018).

The target of test [1] is T1, Recombinant human Cripto-1 (rhCripto-1-1) (human, UniProt P13385 31-172, limits assumed).
T1 construct: Bought protein
T1 sequence (looked up): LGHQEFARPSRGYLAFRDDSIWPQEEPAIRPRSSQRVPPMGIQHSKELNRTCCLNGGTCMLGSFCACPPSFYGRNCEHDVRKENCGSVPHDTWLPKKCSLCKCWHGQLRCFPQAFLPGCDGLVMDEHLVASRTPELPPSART
Put plainly: SPR, average of two formats (Nodal to Cripto and Cripto to Nodal).

The target of test [2] is T1, Recombinant human Cripto-1 …. The test can be described thus: SPR; the curves are labelled hrCripto 4nM, 8nM, 16nM and 32nM, so Cripto-1 is the injected molecule (the legend paragraph 37 words panel A as Nodal to Cripto).
Test [3] shares this target. The test can be described thus: SPR; the curves are labelled Nodal 10nM, 25nM, 50nM and 100nM, so Nodal is the injected molecule (the legend paragraph 37 words panel B as Cripto to Nodal).

B1: Recombinant human Nodal protein (rhNodal, E. coli derived His238-Leu347 with an N-terminal Met) (ligand)
chain: MHHLPDRSQLCRKVKFQVDFNLIGWGSWIIYPKQYNAYRCEGECPNPVGEEFHPTNHAYIQSLLKRYQPHRVPSTCCAPVKTKPLSMLYVDNGRVLLDHHKDMIVEECGCL
notes: range 238-347; also called full length Nodal; rNodal
As for B1, the Kd is about 4 nM in test [1], 3.7 nM in test [2] and 5.8 nM in test [3].
